Experimental data as given in the supplement of paper PMC10567573.

B1: VPS39 (parent)
chain: ITEEKVCMVCKKKIGNSAFARYPN

Variants of: B1
Assay: protein stability index of a GFP-peptide fusion (GPS, HEK-293T) (PSI 1-6); higher = more stable
Settings: c terminus: a fixed tail appended
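Note: lentivirally expressed fusions sorted by FACS into six bins by GFP to DsRed ratio, PSI derived from sequencing read proportions per bin multiplied by bin number.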

| Variant | protein stability index |
| --- | --- |
| ITEEKVCMVCKKKIGNSSFARYPN [A18S] | 3.04 |
| ITEEKVCMVCKKKIGNSHFARYPN [A18H] | 2.73 |
| ITEEKVCMVCKKKIGNSYFARYPN [A18Y] | 1.89 |
| ITEEKVCMVCKKKIGNSGFARYPN [A18G] | 3.02 |
| ITEEKVCMVCKKKIGNSWFARYPN [A18W] | 2.08 |
| ITEEKVCMVCKKKIGNSCFARYPN [A18C] | 2.37 |
| ITEEKVCMVCKKKIGNSDFARYPN [A18D] | 3.65 |
| ITEEKVCMVCKKKIGNSIFARYPN [A18I] | 1.81 |
| ITEEKVCMVCKKKIGNSPFARYPN [A18P] | 2.19 |
| ITEEKVCMVCKKKIGNSQFARYPN [A18Q] | 2.41 |
| ITEEKVCMVCKKKFGNSAFARYPN [I14F] | 2.87 |
| ITEEKVCMVCKKKCGNSAFARYPN [I14C] | 2.5 |
| ITEEKVCMVCKKKMGNSAFARYPN [I14M] | 3 |
| ITEEKVCMVCKKKQGNSAFARYPN [I14Q] | 2.14 |
| ITEEKVCMVCKKKYGNSAFARYPN [I14Y] | 2.66 |
| ITEEKVCMVCKKKGGNSAFARYPN [I14G] | 2.3 |
| ITEEKVCMVCKKKWGNSAFARYPN [I14W] | 2.1 |
| ITEEKVCMVCKKKNGNSAFARYPN [I14N] | 2.38 |
| ITEEKVCMVCKKKTGNSAFARYPN [I14T] | 3.06 |
| ITEEKVCMVCKKKVGNSAFARYPN [I14V] | 1.79 |
| ITEEKVCMVCKKKEGNSAFARYPN [I14E] | 2.85 |
| ITEEKVCMVCKKKLGNSAFARYPN [I14L] | 2.41 |
| ITEEKVCMVCKKKPGNSAFARYPN [I14P] | 2.64 |
| ITEEKVCMVCKKKRGNSAFARYPN [I14R] | 2.67 |

| Variant | protein stability index |
| --- | --- |
| ITEEKVCMVCKKKKGNSAFARYPN [I14K] | 2.49 |
| ITEEKVCMVCKKKSGNSAFARYPN [I14S] | 3.36 |
| ITEEKVCMVCKKKDGNSAFARYPN [I14D] | 3.48 |
| ITEEKVCMVCKKKHGNSAFARYPN [I14H] | 4.23 |
| ITEEKVCMVCKKKIGNGAFARYPN [S17G] | 2.52 |
| ITEEKVCMVCKKKIGNMAFARYPN [S17M] | 2.3 |
| ITEEKVCMVCKKKIGNCAFARYPN [S17C] | 2.67 |
| ITEEKVCMVCKKKIGNFAFARYPN [S17F] | 2.18 |
| ITEEKVCMVCKKKIGNKAFARYPN [S17K] | 2.1 |
| ITEEKVCMVCKKKIGNYAFARYPN [S17Y] | 2.08 |
| ITEEKVCMVCKKKIGNTAFARYPN [S17T] | 2.11 |
| ITEEKVCMVCKKKIGNWAFARYPN [S17W] | 2.14 |
| ITEEKVCMVCKKKIGNIAFARYPN [S17I] | 3.04 |
| ITEEKVCMVCKKKIGNDAFARYPN [S17D] | 2.78 |
| ITEEKVCMVCKKKIGNNAFARYPN [S17N] | 2.17 |
| ITEEKVCMVCKKKIGNAAFARYPN [S17A] | 2.19 |
| ITEEKVCMVCKKKIGNQAFARYPN [S17Q] | 3.1 |
| ITEEKVCMVCKKKIGNHAFARYPN [S17H] | 2.54 |
| ITEEKVCMVCKKKIGNEAFARYPN [S17E] | 3.4 |
| ITEEKVCMVCKKKIGNRAFARYPN [S17R] | 2.62 |
| ITEEKVCMVCKKKIGNPAFARYPN [S17P] | 2.47 |
| ITEEKVCMVCKKKIGNVAFARYPN [S17V] | 3.12 |
| ITEEKVCMVCKKKIGNLAFARYPN [S17L] | 2.07 |
